T1: IL-18 receptor (IL-18Rα/IL-18Rβ) on cells (HEK-Blue IL18R reporter cells, NK-92, KG-1) (human, UniProt Q13478 19-541; O95256 20-599)
T1 sequence (looked up) 1: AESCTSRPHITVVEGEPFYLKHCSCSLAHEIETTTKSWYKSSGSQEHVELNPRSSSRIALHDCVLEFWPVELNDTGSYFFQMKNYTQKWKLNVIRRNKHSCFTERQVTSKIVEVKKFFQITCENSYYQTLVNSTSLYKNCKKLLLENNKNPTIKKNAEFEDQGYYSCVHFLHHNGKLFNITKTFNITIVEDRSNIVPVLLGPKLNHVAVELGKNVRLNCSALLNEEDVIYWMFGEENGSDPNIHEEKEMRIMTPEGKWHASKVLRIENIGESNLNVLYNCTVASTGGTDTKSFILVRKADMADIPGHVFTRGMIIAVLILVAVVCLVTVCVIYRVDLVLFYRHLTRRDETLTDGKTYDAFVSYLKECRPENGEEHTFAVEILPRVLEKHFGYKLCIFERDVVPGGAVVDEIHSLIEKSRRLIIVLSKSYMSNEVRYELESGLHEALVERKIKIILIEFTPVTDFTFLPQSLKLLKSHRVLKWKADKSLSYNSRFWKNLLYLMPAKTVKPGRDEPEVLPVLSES
T1 sequence (looked up) 2: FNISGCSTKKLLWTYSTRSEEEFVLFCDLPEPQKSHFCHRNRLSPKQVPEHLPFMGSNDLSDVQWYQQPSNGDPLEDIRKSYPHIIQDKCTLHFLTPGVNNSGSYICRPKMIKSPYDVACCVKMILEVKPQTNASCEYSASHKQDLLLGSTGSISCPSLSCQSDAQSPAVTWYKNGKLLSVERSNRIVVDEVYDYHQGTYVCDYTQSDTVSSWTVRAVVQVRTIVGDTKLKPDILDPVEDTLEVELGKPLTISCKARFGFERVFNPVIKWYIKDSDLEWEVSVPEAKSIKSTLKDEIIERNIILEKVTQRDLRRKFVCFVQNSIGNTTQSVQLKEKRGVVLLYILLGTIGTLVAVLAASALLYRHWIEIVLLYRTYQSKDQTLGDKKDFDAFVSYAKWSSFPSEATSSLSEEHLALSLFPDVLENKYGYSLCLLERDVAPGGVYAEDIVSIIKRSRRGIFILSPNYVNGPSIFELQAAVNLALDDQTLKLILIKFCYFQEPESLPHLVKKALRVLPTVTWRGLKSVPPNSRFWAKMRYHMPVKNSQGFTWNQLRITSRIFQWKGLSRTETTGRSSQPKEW

B1: human IL-18BP-His (other)
chain: TPVSQTTTAATASVRSTKDPCPSQPPVFPAAKQCPALEVTWPEVEVPLNGTLSLSCVACSRFPNFSILYWLGNGSFIEHLPGRLWEGSTSRERGSTGTQLCKALVLEQLTPALHSTNFSCVLVDPEQVVQRHVVLAQLWAGLRATLPPTQEALPSSHSSPQQQG
notes: also called His-tagged human IL-18BP; not shown: His tag
B2: IL-18 polypeptide of SEQ ID NO: 30 (E6K, V11I, C38A, K53A, T63A, C76A, C127A) (ligand)
chain: YFGKLKSKLSIIRNLNDQVLFIDQGNRPLFEDMTDSDARDNAPRTIFIISMYADSQPRGMAVAISVKCEKISTLSAENKIISFKEMNPPDNIKDTKSDIIFFQRSVPGHDNKMQFESSSYEGYFLAAEKERDLFKLILKKEDELGDRSIMFTVQNED
notes: also called C086

Experiments:
[1] = molecular target: T2, Composition B (Atezolizumab/Tecentriq conjugated to IL-18 polypeptide of SEQ ID NO: 30) (human, UniProt P0DOX5 2-449 = IgG part; P0DOX7 1-214; Q14116 37-193, chemical linker to the antibody; site not stated for this composition; chemical linker to IL-18; site not stated for this composition); test: AlphaLISA of free IL-18BP after incubation with IL-18BP-His
T2 construct: immunocytokine
Description: (§1) Under subdued light, 12.5 µl of pre-mixed Donor beads were added, followed by a short centrifugation step at 150 g, and incubated for 30 minutes at 20° C. under shaking at 750 rpm with no light. AlphaLisa signal was then measured on an Enspire plate reader (Perkin Elmer) using 680 and 615 nm as excitation and emission wavelengths respectively.

[2] = molecular target: T1, IL-18 receptor (IL-18Rα/IL-18Rβ) on …; test: cell-based or functional assay
[3] = molecular target: T1, IL-18 receptor (IL-18Rα/IL-18Rβ) on …; test: cell-based or functional assay; remark: listed apart in the source
human IL-18BP-His = molecular target: B1; test: AlphaLISA of free IL-18BP after incubation with IL-18BP-His
Description: as §1

[4] = molecular target: T1, IL-18 receptor (IL-18Rα/IL-18Rβ) on …; test: cell-based or functional assay; remark: listed apart in the source

B1
Kd [1]: 6380 pM

B2
EC50, IFNγ secretion, PD-1 positive KG-1 cells [2]: 8 pM
EC50, IFNγ secretion, parental KG-1 cells [2]: 12 pM
EC50, HEK-Blue IL18R reporter cells [3]: 0.034 pM
Kd (human IL-18BP-His): 24600 pM
EC50, IFNγ secretion, NK92 cells [4]: 2 pM
